The supplement of paper PMC9170038

Test system: K4 kissing-loop RNA reporter
Assay: apparent KD of K4 kissing-loop reporter; higher = weaker reporter binding
Conditions: Eterna round: R107
Procedure: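 RNA-MaP round R107: designed RNA switches with theophylline, tryptophan, arginine or FMN aptamers are transcribed on-chip within common flanks. They are titrated with a labelled K4 kissing-loop RNA reporter in RNA-MaP buffer (100 mM Tris pH 7.5, 80 mM KCl, 4 mM MgCl2), without ligand or with the indicated ligand. Median apparent KD per design.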

[1] = input ligand: theophylline 20 uM
[2] = input ligand: tryptophan 2.4 mM
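Note: bound reporter read as fluorescence of individual clusters on recovered sequencing chips by microscopy, with normalized cluster intensities fitted with a binding model.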

Row | Sequence | apparent KD of K4 kissing-loop reporter (input ligand: FMN 200 uM) | apparent KD of K4 kissing-loop reporter (input ligand: arginine 13.2 mM) | apparent KD of K4 kissing-loop reporter (input ligand: none) | apparent KD of K4 kissing-loop reporter [1] | apparent KD of K4 kissing-loop reporter [2]
1 | AGACUACUGAUAGGAUAUAACAUCCUAGUCGUAUACCGAAAGGUAUACGAUAUCCUUCUAGUGAUGUUAGAAGGGUCGGUAGUCA [Omei KL FMN B Exc B v10] | 113 nM | 85.5 nM | 103 nM | 88.3 nM | 98.4 nM
2 | AGAGAUAUAUGAGGAUAUGGGUUAGUUAAUGAGUUAGUUUUAGUGUUGUUUGGUUAGUGAUGUUAUUUAGAAGGCGUGAGUGAUG [cqqbmullin] | 98.4 nM | 60.8 nM | 70 nM | 112 nM | 66.2 nM
3 | AGAGUCACAUAAGGAUAUCCCUUGACGGGAACCAAGUGAUGUUUGGUUAGACGACCUCUUAUCACGGGAGAAGGUAUAUUUGUAU [theeternabot_sameState_KL_FMN_B_27] | 724 nM | 580 nM | 889 nM | 676 nM | 612 nM
4 | AGAGUUAAUUAGUCUUUUUUAACAUUAAGUCAGGAUAUCGUAUAUUCGAGAAGGGACACAUGCUAGUGAUGUUAGCUAUUUCUCA [JR_ExcFMNA_Sub018] | 50.2 nM | 90.5 nM | 56.5 nM | 86.7 nM | 47.2 nM
5 | AGAGUUAAUUAGUCUUUUUUUACAUUAAGUCAGGAUAUCGUAUAUUCGAGAAGGGACACAUGCUAGUGAUGUUAGCUAUUUCUCA [JR_Nu_ExcFMNA_Sub019] | 39.7 nM | 79.6 nM | 47.5 nM | 71.7 nM | 44.4 nM
6 | AGAGUUAUAUGAGGAUAUGAGAUAGUUAAUGAGUGAGUUAUAGUGUAGUUUGGUUAGUGAUGUUAUUUAGAAGGCGUGAGUGAUG [reefmullin] | 133 nM | 76.5 nM | 115 nM | 100 nM | 83.1 nM
7 | AGAGUUAUGCGAGGAUAUGCAGUUAGUACUCAAAGAGUACUAACAGCAGAGUGAUGUUCUGUGAAAGCAGAAGGUGCAUAACUCA [Omei KL FMN B SS B v7] | 153 nM | 630 nM | 1120 nM | 641 nM | 671 nM
8 | AGAGUUAUGCGAGGAUAUGCAGUUAGUACUCAAAGAGUACUAACGCAGAGUGAUGUUCUGUGAAACGCAGAAGGUGCAUAACUCA [Omei KL FMN B SS B v4] | 161 nM | 509 nM | 549 nM | 480 nM | 485 nM
9 | AGAGUUGACGAAAAGUCAACUCUACGAGAAGGAGCGCACGAAAGUGCAGGUAGGUCGCUCAGUCCAGUGAUGUUGGAACAUAAAA [#OpenEnded 8] | 59.7 nM | 101 nM | 68.8 nM | 84.1 nM | 59.2 nM
10 | AGAGUUUUAUGAGGAUAUGAGAUAGUUAAUGAGUGAGUUAUAGUGUAGUUUGGUUAGUGAUGUUAUUUAGAAGGCGUGAGUGAUG [zzfzmullin] | 205 nM | 92.9 nM | 143 nM | 101 nM | 108 nM
11 | AGAUACUUUAUCGCUAGAGGCAUUGCAGAUACCAGCCUAUCUAGAGGCCCUUGGCAGCUGGAGUGAUGUUUCGGCUUAGCUAAAG [theeternabot_exclusion_KL_Theo_A_32] | 402 nM | 317 nM | 323 nM | 348 nM | 393 nM
12 | AGAUCUAAGCUGAGUUAGUCACCAUAAAGCAAGGAUAUUCCACGAAGAAGAAGGUGCAUCAUCCAUAGUGAUGUUAUGGCACGGG [theeternabot_sameState_KL_FMN_A_7] | 687 nM | 548 nM | 807 nM | 672 nM | 574 nM
13 | AGAUGACACCGAGGAUAUCCUAAUAUGGGUGAUGUUAGCGAUGUUGAAGGUGUAGUGAUGUUAUGCGGAGAAGGCGGUGUUGUUU [BDazzled - #21 - Exc. FMN B] | 104 nM | 103 nM | 216 nM | 139 nM | 132 nM
14 | AGAUGUCCCUGGGAUACCAGUCGGAGUCUCAGAGCUCGGAGUGAUGUUCUGGGAUGUUUCGGCCCUUGGCAGCUCUGGGACUCCC [#2 Exclusion - Theophylline B Attempt #25 (HarryS)] | 603 nM | 722 nM | 847 nM | 708 nM | 909 nM
15 | AGAUGUCUCUGGGAUACCAGUCGGAGUCUCAGGGCUCGGAGUGAUGUUCUGGGAUGUUUCGGCCCUUGGCAGCCCUGGGACUCCC [#2 Exclusion - Theophylline B Attempt #27 (HarryS)] | 724 nM | 514 nM | 649 nM | 740 nM | 542 nM
16 | AGCAGUGAUGUUGCAUUUAUAAAGACCGAUACCAGUAUCGAUAGAUACCCUUGGCAGCGGAUUUCCGCAACGACUAGGAAACUAG [Ex Theophylline A K4 13] | 404 nM | 423 nM | 399 nM | 466 nM | 270 nM
17 | AGCAGUGAUGUUGCUCAAUUUACAGGUGAUACCAGAGGUCAGUCUCUCCCUUGGCAGCACUUCAUACGAUGAUGUUUUAUCGGCC [theeternabot_sameState_KL_Theo_A_50] | 374 nM | 321 nM | 370 nM | 378 nM | 313 nM
18 | AGCGGCCAGUCGGCCGCCACUCCAGGCAGUGAUGUUGCUAAGUUUCUACUAGAGUGAUGUUCUAAGAGGACCGGGACUGACGUAU [Exclusion Tryptophan B Gf 8] | 178 nM | 225 nM | 199 nM | 216 nM | 145 nM
19 | AGCUCAGAGUGACUCGAUAAGAGUCACAAACGAGGACCGGUACGGCCGCCACUCGAAAUAACGAGAGUGAUGUUCUCGCUGGGCA [FiskerMod 1 - Jieux - Same State Tryptophan A] | 829 nM | 463 nM | 1010 nM | 540 nM | 296 nM
20 | AGCUCAGAGUGACUCGAUAAGAGUCACAAACGAGGACCGGUACGGCCGCCACUCGAAAUAAUGGGAGUGAUGUUCUCACUGAGCA [#SwitchBubble 3 #StaticStem #K4Late] | 1030 nM | 719 nM | 1190 nM | 796 nM | 384 nM
21 | AGCUGUGGCAGAAGGAGCGACAGUUAUUCUGAUAGUACUCUGAGUGAUGUUCAGAACGACUGUCAGGUAGGUCGCUGUCACAGCU [#01 K4 Arginine B Exclusion] | 172 nM | 159 nM | 175 nM | 153 nM | 169 nM

Row | Sequence | apparent KD of K4 kissing-loop reporter (input ligand: FMN 200 uM) | apparent KD of K4 kissing-loop reporter (input ligand: arginine 13.2 mM) | apparent KD of K4 kissing-loop reporter (input ligand: none) | apparent KD of K4 kissing-loop reporter [1] | apparent KD of K4 kissing-loop reporter [2]
22 | AGGAGCGUGGGAUGGAAAUCGCACGCUCCUCGAGGACCGGUACGGCCGCCACUCGCUCGCGCCGAGUGAUGUUCGGCCGGCGAAG [#2 Same State - Tryptophan A Attempt #15 (HarryS)] | 579 nM | 194 nM | 128 nM | 129 nM | 226 nM
23 | AGGAUGUAGUGAUGUUAUAUAAGAAGUAGACGAGGACCGGUACGGCCGCCACUCGAAACGGCUACUAGCGCGUUGCGAGGUGUGC [ExTryptoA.Cg] | 576 nM | 435 nM | 476 nM | 468 nM | 326 nM
24 | AGGCACGAGCAAGGAUAUCGAGUAGAGUGAUGUUCUGCCUGGGUUGGCUCGCAAGAGCCUUCUCAGCGAGAAGGUGCUCGUGCCU [#2 Same State - FMN A Attempt #18 (HarryS)] | 176 nM | 602 nM | 946 nM | 595 nM | 640 nM
25 | AGGCGCUUAAGUCAGUGAUGUUGAUUAUAUCGAGGACCGGUACGGCCGCCACUCGGCUUUCAUCCGCCAUCGUAGUCCUAAAACC [theeternabot_sameState_KL_Trp_A_25] | 498 nM | 490 nM | 559 nM | 534 nM | 549 nM
26 | AGGCGGCAAGAUUGAUUGGAAAGUAAUCGACGAGGACCGGUACGGCCGCCACUCGAACACCAGUGAUGUUGGUCUGGCUUAAGCC [Exclusion Tryptophan A GF 20] | 430 nM | 369 nM | 435 nM | 477 nM | 363 nM
27 | AGGCGGCAUGAUUGACUGAAAAGAAAUCAACGAGGACCGGUACGGCCGCCACUCGAACACCAGUGAUGUUGGUAUGGGAUAACCC [Exclusion Tryptophan A GF 19] | 178 nM | 188 nM | 184 nM | 173 nM | 159 nM
28 | AGGGUUUAACACGAUACCAGCCUGGAGGCCAGUGAUGUUGGCCGAUUUGAACAGAAUUAAGGCCCUUGGCAGCGUCUUUAAAACC [Biarat] | 143 nM | 152 nM | 167 nM | 165 nM | 153 nM
29 | AGGGUUUAGGACGAUACCAGCCUGGAGGCCAGUGAUGUUGGCCGAUUUGAACAGAAUUAAGGCCCUUGGCAGCGUAUCUAAAACC [Esamaza] | 280 nM | 291 nM | 320 nM | 161 nM | 259 nM
30 | AGGUAGUCCCUUGUUGUCAUCGAAGAUGAACGAGGACCGGUACGGCCGCCACUCGGAGUGAUGUUCCGAUGGCUGCAAAAUAAAA [MatMod 23 - Jieux - Exclusion - Tryptophan A] | 108 nM | 89 nM | 97.2 nM | 85.9 nM | 103 nM
31 | AGGUCACAACUACAGUGAUGUUGUGGAGAGCAGGAUAUGCAGAAAUGCAGAAGGGCUCGCUCUCUAGUGACCGAUCAAAAGAUCA [Omei KL FMN A SS A v9] | 1360 nM | 311 nM | 669 nM | 545 nM | 532 nM
32 | AGGUCACGAGGAAGGAGCGCCCUGACAGGUUGCUGCCGUGGGCAGUGAUGUUGCUCAGUCCGGCAGGUAGGUCGCCUCGUGACCU | 151 nM | 174 nM | 147 nM | 111 nM | 148 nM
33 | AGGUCAGCAGGAAGGAGCGCCCUGACAGGUUGCUGCCGUGGGCAGUGAUGUUGCUCAGUCCGGCAGGUAGGUCGCCUGCUGACCU | 204 nM | 157 nM | 153 nM | 188 nM | 156 nM
34 | AGGUCCGAGCCCGCAAGGGCUCGGACCUGUUAGGAUAUGACGUUAUUCAGAAGGGAUGGGUGGAGUGAUGUUCCACCCGCGAGGG [#2 Same State - FMN A Attempt #12 (HarryS)] | 132 nM | 131 nM | 202 nM | – | 149 nM
35 | AGGUCCGAGCCCGGAAGGGCUCGGACCUGUUAGGAUAUGACGUUAUUCAGAAGGGAUGGGUGGAGUGAUGUUCCACCCGAGAGGG [#2 Same State - FMN A Attempt #17 (HarryS)] | 106 nM | 103 nM | 100 nM | 108 nM | 98.3 nM
36 | AGGUCCGAGCCUGCAAAGGCUCGGACCUGUUAGGAUAUGACGUUAUUCAGAAGGGAUGGGUGGAGUGAUGUUCCACCCGCAAGGG [#2 Same State - FMN A Attempt #7 (HarryS)] | 142 nM | 105 nM | 120 nM | 98.4 nM | 113 nM
37 | AGGUCCGAGCCUGUAAAGGCUCGGACCUGUUAGGAUAUGACGUUAUUCAGAAGGGAUGGGUGGAGUGAUGUUCCACCCGCAAGGG [#2 Same State - FMN A Attempt #5 (HarryS)] | 107 nM | 103 nM | 111 nM | 116 nM | 104 nM
38 | AGGUGAGACUGAAGGAGCGAUCGCGCCAGUGAUGUUGGUGAGCAUGACAAAGUCAUGCACGAUCAGGUAGGUCGCAGUCUUACUC [Omei KL Arginine B SS B v2] | 199 nM | 156 nM | 206 nM | 188 nM | 185 nM
39 | AGGUUUUGAUUAGGAUAUGCACUGAGGAGGAGAAUAUAGUGAUGUUAUAUAAGAGGAAGGAGAAGAGUAGAAGGGAUUGAGGUUU [SSFMNB.Q] | 156 nM | 285 nM | 191 nM | 197 nM | 190 nM
40 | AGUAAUCUCACGGCCGCCACUGUUUAUUGUUUUUAUAGUUAUAAAUCUUGCCAGUGAUGUUGGUACAGGACCGGGUGAGUUAAUA [#25 K4 Tryptophan B Same State] | 357 nM | 360 nM | 402 nM | 353 nM | 316 nM
41 | AGUACGGCAAACUUGCAACAAGCCGUACCACGAGGACCGGUACGGCCGCCACUCGAUAACUUGCAGUGAUGUUGCAAGUAAGAAU [(T)''-(K)'-(T)'-(T1)-(T2)-(K1)-(K2)_Design5] | 161 nM | 140 nM | 169 nM | 226 nM | 209 nM
